Reference: article PMC2864300, “Regulation of NOXO1 Activity through Reversible Interactions with p22^phox and NOXA1” (PLoS ONE, 2010)

Key:
[1] = target: human NOXO1 tandem SH3 domains (SH3AB) (human); test: ITC; MicroCal VP-ITC, 18°C; 150 mM NaCl, 1 mM DTT, 50 mM HEPES pH 7.4; typically 20–40 µM protein in the cell, 200–300 µM ligand injected; single-site binding model; averaged over three to five experiments
[2] = target: human NOXO1 tandem SH3 domains (SH3AB) (human); test: ITC; data not shown; peptides of the human NOXO1 C-terminal tail titrated against human NOXO1 SH3 domains

Binder | Kd [1] [µM] | Kd [2] [µM]
TAPPPTVPTRPS [shorter version of peptideA, which only contains the proline rich region] | 50 | –
TAPPPTVPTRPSPGAIQSRCCTVTRRALE [peptideA (amino acids 319–347 of human NOXO1)] | – | 50
